Test results: patent US8361965B2, “Recombinant chimeric protein of neutrophil inhibitory factor and hirugen, and pharmaceutical composition thereof” (Lunan Pharmaceutical Group Corporation, priority 2008, dated 2013)

How the values were obtained:
[1] = system: platelet aggregation induced by human thrombin; experiment: antiplatelet aggregation assay (rabbits dosed i.v., thrombin-induced aggregation of PRP); format: in vivo, Japanese Giant Ear White Rabbits; details: for aggregation ratio, difference: before vs 15 min after
Procedure: Platelet aggregation rate was determined by puncture of the central artery of the ear before administration, and then rabbits were randomly divided into 5 groups (4 in each group) based on the platelet aggregation rate and body weight: (1) negative control group (5.12 mg mannitol/kg), (2) high dose TNHH group (4.0 mg/kg), (3) middle dose TNHH group (2.0 mg/kg), (4) low dose TNHH group (1.0 mg/kg), and (5) positive control group (0.1 mg recombinant hirudin/kg). The rabbits in each group were administered at the dose respectively via intravenous injection from the marginal ear vein. Blood samples were collected at the time of 15 min after administration (timed by stopwatch) by puncture of the central artery of the ear to determine the platelet aggregation rate. The method of platelet aggregation rate determination was described as follows: the blood samples were collected by puncture of the central artery of the ear using silicified syringe. 3.8% anticoagulant sodium citrate solution (blood: anticoagulant=9:1) was used. The sample was centrifuged at 200×g for 8 min, and the supernatant obtained was platelet-rich plasma (PRP); then the remaining part was centrifuged again at 2200×g for 10 min, and the supernatant obtained was platelet-poor plasma (PPP). The platelet in PRP was counted as approximate 4.0×10^5/mm^3. According to Born's turbidimetry, a turbidimetric tube with 200 μl PRP and a small magnetic bar was placed in a platelet aggregation instrument and incubated at 37 for 1 min. After calibrating with PPP, the platelet was induced to aggregate by adding inductive human thrombin (0.76 IU/ml) under stirring. The effect of medicaments on the aggregation of platelet was analyzed using the aggregation curve and the maximum aggregation rate obtained from the instrument. The maximum aggregation rate was calculated according to the formula below: […]

[2] = system: experimental cerebral hematoma in rats; experiment: effects on experimental cerebral hematoma in rats; format: in vivo, SD rats; set-up: key to behavioral score: neurologic defect score, full score 11; higher = more severe disorder; details: 2 mg/kg bid caudal vein; for behavioral score: full score 11
Procedure: SD rats were randomly divided into 4 groups (8 animals per group), including model group, NHH group, NIF group and TNHH group. The rats in each group were anesthetized by chloral hydrate, and then 0.1 ml blood was collected by amputation of tail. The rats were fixed in a stereotaxic apparatus. Median incision of scalp was performed and the periosteum was cut open to expose bregma. Subsequently, a small hole with a diameter of 1 mm was perforated for needle insertion of microsyringe fixed on the stereotaxic apparatus with insertion depth of 5.8 mm (i.e to the position of caudate nucleus) at the site which was 1 mm rearward to the bregma and 3 mm left to the midline, and then 0.1 ml autoblood was injected slowly. Neurological functional defect score was immediately evaluated based on the evaluation criterion after the animal got conscious. The animal with behavior score less than 11 was selected in this study. Behavior score evaluation was continuously carried out after the establishment of model till the end of the experiment.
The neurologic function defect score was evaluated at 5 time points of 4 h, 12 h, 24 h, 48 h and 72 h after the model establishment. Changes of brain water content and histopathological observation were performed at 72 h after the model establishment on sacrificed rats.
Corresponding medicaments (2 mg/kg, bid) were administered through the caudal vein to animals with administration volume of 1 ml/100 g in each group after model animal was successfully established (according to the score less than 11 based on the behavior score evaluation), while the model group received physiological saline in the corresponding volume.
The brain was taken out immediately after the sacrifice of animals, and then […] ectocinerea (cortex was removed) at the edge of haematoma was collected. The brain water content was determined using dry and wet method based on the following formula: Brain water content=(wet weight−dry weight)/wet weight×100%
The brain was immediately taken out by decollation at selected time points, and it was sliced up to be 2 mm thick along the coronal section and then fixed in 10% formaldehyde. The slices were stained by regular HE and mounted. Then the pathological changes occurred in pathological region and the neighboring brain tissues were observed.
Evaluation was performed at the time of 4 h, 12 h, 24 h, 48 h and 72 h after surgery. The method was described as follows:
The flection of forelimbs was observed by lifting the rat by its tail. If the forelimbs symmetrically extended toward the floor, the score was 0. While if wrist flection, or elbow inflection, or internal rotation of shoulder, or both elbow inflection and internal rotation of shoulder occurred to forelimbs of the rat on the opposite side of the surgery part, it was evaluated as scores of 1, 2, 3 and 4, respectively.
The animal was placed on flat floor, and then both shoulders were pushed to move towards the opposite side to examine the resistance. If the resistances on both sides were equal and forceful, it was evaluated as 0. While if the resistance decreased slightly, mildly or severely when pushed to the opposite side of the surgery part, it was evaluated as 1, 2 or 3, respectively.
Both forelimbs of the animal were placed on a metal mesh to observe the muscular tension. The rat with equal and forceful muscular tension of both forelimbs was evaluated as 0. In the same way, the rat was evaluated as 1, 2 or 3, respectively with the reduction of muscular tension on the opposite side of the surgery part mentioned above.
The animal tended to keep turning around to one side was evaluated as 1. Based on the evaluation criterion (with full score of 11), the higher the score was evaluated, the more severe the behavior disorder was.

[3] = biological target: thrombin (Homo sapiens, UniProt P00734); experiment: in vitro binding of TNHH to thrombin (SEC-HPLC); set-up: Human thrombin (127 Unit/ampoule), Lot No.: 20021105; purchased National Institute for The Control of Pharmaceutical and Biological Products Lot No.: 20021105; details: 37° C. 1 h
Procedure: Weigh TNHH, dilute to 1.0 mg/ml with phosphate buffer solution, and is ready for use; Weight fibrin precisely, dissolve and dilute to 0.1 mg/ml with phosphate buffer solution, and is ready for use; Weigh thrombin, dissolve and dilute to 100 units/ml with phosphate buffer solution, which is ready for use.
Following the below procedures, test materials were reacted at 37° C. for 1 h, and then analyzed under the following chromatographic conditions.
(1) pipette test material solutions (20 μl for each), loading for analysis, and recording each retention time.
(2) pipette fibrin and thrombin solutions (0.5 ml for each), mixing and reacting at 37° C. for 1 h, and loading 20 μl sample for analysis.
(3) pipette TNHH and fibrin solutions (0.5 ml for each), mixing and reacting at 37° C. for 1 h, and loading 20 μl sample for analysis.
(4) pipette TNHH and thrombin solutions (0.5 ml for each), mixing and reacting at 37° C. for 1 h, and loading 20 μl sample for analysis.
(5) pipette TNHH and mixture of fibrin and thrombin solutions (0.5 ml for each), mixing and reacting at 37° C. for 1 h, and loading 20 μl sample for analysis.
Flow rate 0.5 ml/min; detection wavelength: 214 nm, Column temperature: room temperature; chromatogram recording time: 25 min.

B1: TNHH: recombinant chimeric protein of neutrophil inhibitory factor and hirugen, Met-NIF-GGGGG-FPRPGSGG-Hirugen (SEQ ID NO: 3), expressed in E. coli (protein)
chain: MNEHNLRCPQNGTEMPGFNDSIRLQFLAMHNGYRSKLALGHISITEESESDDDDDFGFLPDFAPRASKMRYLEYDCEAEKSAYMSARNCSDSSSPPEGYDENKYIFENSNNISEAALKAMISWAKEAFNLNKTKEGEGVLYRSNHDISNFANLAWDAREKFGCAVVNCPLGEIDDETNHDGETYATTIHVVCHYPKINKTEGQPIYKVGTPCDDCSEYTKKADNTTSADPVCIPDDGVCFIGSKADYDSKEFYRFRELGGGGGFPRPGSGGNGDFEEIPEEYL
modifications: N-terminal Met
Question: How did the “aggregation ratio, Before administration” value ([1]; TNHH 1.0 mg/kg group) turn out when B1 was run?
Answer: 57.19 ± 4.42%

Question: And the “aggregation ratio, 15 min after administration” value (from here on “aggregation ratio, 15 min”) ([1]; TNHH 1.0 mg/kg i.v.)?
Answer: 36.27 ± 12.13%

Question: And the “aggregation ratio, difference” value ([1]; TNHH 1.0 mg/kg i.v.)?
Answer: 20.82 ± 7.98 %

Question: And the “aggregation ratio, Before administration” value ([1]; TNHH 2.0 mg/kg group)?
Answer: 59.62 ± 7.22%

Question: And the “aggregation ratio, 15 min” value ([1]; TNHH 2.0 mg/kg i.v.)?
Answer: 19.33 ± 10.25%

Question: And the “aggregation ratio, difference” value ([1]; TNHH 2.0 mg/kg i.v.)?
Answer: 30.30 ± 9.92 %

Question: What about the “aggregation ratio, Before administration” value ([1]; TNHH 4.0 mg/kg group) of the same molecule?
Answer: 59.23 ± 6.30%

Question: And the “aggregation ratio, 15 min” value ([1]; TNHH 4.0 mg/kg i.v.)?
Answer: 9.22 ± 4.51%

Question: What about the “aggregation ratio, difference” value ([1]; TNHH 4.0 mg/kg i.v.) of the same molecule?
Answer: 50.92 ± 4.33 %

Question: And the behavioral score ([2]; 4 h)?
Answer: 2.00 ± 1.07

Question: What about the behavioral score ([2]; 12 h) of the same molecule?
Answer: 2.00 ± 0.76

Question: What about the behavioral score ([2]; 24 h) of the same molecule?
Answer: 2.25 ± 0.46

Question: And the behavioral score ([2]; 48 h)?
Answer: 2.12 ± 0.64

Question: What about the “Brain water content (%)” value ([2]; 72 h, dry and wet method) of the same molecule?
Answer: 78.28 ± 1.97 %

Question: What about the behavioral score ([2]; 72 h) of the same molecule?
Answer: 2.88 ± 1.46

Question: What about the binding with thrombin [3] of the same molecule?
Answer: could bind with fibrin and thrombin
